Reference: US9403884B2, “Peptides useful as cell-penetrating peptides” (Evonik Roehm GmbH, priority 2005, dated 2016)
fluorescein = fluorescein label (fluorescent marker on the peptide)

Columns and labels:
HeLa cells [1] = assay: Cytotoxic effects observed during the uptake experiments (flow cytometry, live cell microscopy); type: cell-based, human; conditions: concentration range of up to 40 μM, mostly incubation times of less than one hour
HeLa cells [2] = assay: Cytotoxicity of hLF-peptide, cell viability by MTT test; type: cell-based, human; conditions: FIG. 6
Procedure: However, for live cell microscopy of peptide uptake mostly rather short incubation times of less than one hour were employed. It was therefore also tested whether for longer incubation times and higher concentrations, the peptide affected cell viability. HeLa cells were incubated with the hLF-peptide at concentrations ranging from 1.25 μM to up to 160 μM for either 6 or 0.5 hours. Afterwards cell viability was determined using an MTT test. The result thereof are depicted in FIG. 6.

Q: What does the source list for “Fluo-KCFQWQRNMRKVRGPPVSCIKR-CONH2 (fluorescein-KCFQWQRNMRKVRGPPVSCIKR-NH2; cysteine pairing not given here; listed as Homo sapiens) [hLF-peptide]”?
A: cytotoxic effects in the uptake experiments (HeLa cells [1]): no cytotoxic effects could be observed; cell viability (MTT) (HeLa cells [2]; after 6 hours, peptide concentrations higher than 5 μM): slightly reduced; cell viability (MTT) (HeLa cells [2]; concentrations higher than 40 μM (tested up to 160 μM)): all cells were killed; cytotoxicity (MTT cell viability) (HeLa cells [2]; incubated 30 minutes, concentrations up to 40 μM): no cytotoxicity was observed
